Measured values: US20240059757A1 (VIR BIOTECHNOLOGY, published 2024)
Values joined by “and” are separate entries in the source; they are usually repeats but may differ in a detail not shown here. Equal entries are not always repeated. Where two headings read alike, the source gives them in different places.

How the values were obtained:
[1] = molecular target: T1, SARS-CoV-2 RBD (residues 331-550 of spike from BetaCoV/Wuhan-Hu-1/2019, accession number MN908947) (SARS-CoV-2 Wuhan-Hu-1, UniProt P0DTC2 331-550)
[2] = molecular target: T1, SARS-CoV-2 RBD (residues 331-550 of …); test: BLI
[3] = molecular target: T1, SARS-CoV-2 RBD (residues 331-550 of …); test: ELISA
[4] = molecular target: SARS-CoV-2 mutant RBD N439K (SARS-CoV-2, UniProt P0DTC2 328-531); test: ELISA
[5] = molecular target: T1, SARS-CoV-2 RBD (residues 331-550 of …); test: BLI; remark: listed apart in the source
[6] = molecular target: T2, SARS-CoV-2 Spike protein (SARS-CoV-2 Wuhan-Hu-1, UniProt P0DTC2 14-1273); test: cell-based or functional assay
[7] = molecular target: T2, SARS-CoV-2 Spike protein; test: cell-based or functional assay; remark: listed apart in the source

Binder | EC50 (read off the curve) [1] [µg/mL] | Kd [2] [nM] | koff [2] [s⁻¹] | kon [2] [M⁻¹ s⁻¹] | IC50 [3] | IC50 [4] | Kd [5] [nM] | neutralization IC50 [6] [µg/mL] | neutralization IC50 [7] [µg/mL]
407_10_1_v2 (antibody, V domains shown) VH: QVQLVQSGAEVKKPGSSVKVSCKASGGIFNTYTISWVRQAPGQGLEWMGRIILMSGMANYAQKIQGRVTITADKSTSTAYMELTSLRSDDTAVYYCARGFNGNYYGWGDDDAFDIWGQGTLVTVYS VL: QTVLTQPPSVSGAPGQRVTISCTGSNSNIGAGYDVHWYQQLPGTAPKLLICGNSNRPSGVPDRFSGSKSGTSASLAITGLQAEDEADYYCQSYDSSLSGPNWVFGGGTKLTVL | ~5 |  |  |  |  |  |  |  | 
S2X259 variant antibody, VH SEQ ID NO 460 / VL SEQ ID NO 445 (antibody, V domains shown) VH: QVQLVQSGAEVKKPGSSVKVSCKASGGIFNTYTISWVRQAPGQGLEWMGRIILISGIANYAQKIQGRVTITADKSTSTAYMELTSLRSDDTAVYYCARGFNGNYYGWGDDDAFDIWGQGTLVTVSS VL: QTVLTQPPSVSGAPGQRVTISCTGSNSNIGAGYDVHWYQQLPGTAPKLLIVGNSNRPSGVPDRFSGSKSGTSASLAITGLQAEDEADYYCQSYDSSLSGPNWVFGGGTKLTVL |  | 0.298 | 0.000177 | 595000 | ≥ 0.05 µg/mL and ≤ 0.1 µg/mL |  |  |  | 
S2X259 variant antibody, VH SEQ ID NO 459 / VL SEQ ID NO 445 (antibody, V domains shown) VH: QVQLVQSGAEVKKPGSSVKVSCKASGGIFNTYTISWVRQAPGQGLEWMGRIILMSGKANYAQKIQGRVTITADKSTSTAYMELTSLRSDDTAVYYCARGFNGNYYGWGDDDAFDIWGQGTLVTVSS VL: QTVLTQPPSVSGAPGQRVTISCTGSNSNIGAGYDVHWYQQLPGTAPKLLIVGNSNRPSGVPDRFSGSKSGTSASLAITGLQAEDEADYYCQSYDSSLSGPNWVFGGGTKLTVL |  | 0.108 | 6.46e-05 | 601000 | ≥ 0.05 µg/mL and ≤ 0.1 µg/mL | ≥ 0.05 µg/mL and ≤ 0.1 µg/mL |  |  | 
S2X259 variant antibody, VH SEQ ID NO 458 / VL SEQ ID NO 445 (antibody, V domains shown) VH: QVQLVQSGAEVKKPGSSVKVSCKASGGIFNTYTISWVRQAPGQGLEWMGRIILMSGMANYAQKIQGRVTITADKSTSTAYMELTSLRSDDTAVYYCARGFNGNYYGWGDDDAFDIWGQGTLVTVSS VL: QTVLTQPPSVSGAPGQRVTISCTGSNSNIGAGYDVHWYQQLPGTAPKLLIVGNSNRPSGVPDRFSGSKSGTSASLAITGLQAEDEADYYCQSYDSSLSGPNWVFGGGTKLTVL |  | 0.0836 | 5.03e-05 | 601000 | ≥ 0.05 µg/mL and ≤ 0.1 µg/mL | ≥ 0.05 µg/mL and ≤ 0.1 µg/mL |  |  | 
S2X259 variant antibody, VH SEQ ID NO 408 / VL SEQ ID NO 444 (antibody, V domains shown) VH: QVQLVQSGAEVKKPGSSVKVSCKASGGIFNTYTISWVRQAPGQGLEWMGRIILMSGMANYAQKIQGRVTITADKSTSTAYMELTSLRSDDTAVYYCARGFNGNYYGWGDDDAFDISGQGTLVTVYS VL: QTVLTQPPSVSGAPGQRVTISCTGSNSNIGAGYDVHWYQQLPGTAPKLLIYGNSNRPSGVPDRFSGSKSGTSASLAITGLQAEDEADYYCQSYDSSLSGPNWVFGGGTKLTVL |  |  |  |  |  |  | 0.0642 | 0.167 | 
S2X259 variant antibody, VH SEQ ID NO 408 / VL SEQ ID NO 442 (antibody, V domains shown) VH: QVQLVQSGAEVKKPGSSVKVSCKASGGIFNTYTISWVRQAPGQGLEWMGRIILMSGMANYAQKIQGRVTITADKSTSTAYMELTSLRSDDTAVYYCARGFNGNYYGWGDDDAFDISGQGTLVTVYS VL: QTVLTQPPSVSGAPGQRVTISCTGSNSNIGAGYDVHWYQQLPGTAPKLLISGNSNRPSGVPDRFSGSKSGTSASLAITGLQAEDEADYYCQSYDSSLSGPNWVFGGGTKLTVL |  |  |  |  |  |  | 0.0605 | 0.19 | 
S2X259 variant antibody, VH SEQ ID NO 408 / VL SEQ ID NO 443 (antibody, V domains shown) VH: QVQLVQSGAEVKKPGSSVKVSCKASGGIFNTYTISWVRQAPGQGLEWMGRIILMSGMANYAQKIQGRVTITADKSTSTAYMELTSLRSDDTAVYYCARGFNGNYYGWGDDDAFDISGQGTLVTVYS VL: QTVLTQPPSVSGAPGQRVTISCTGSNSNIGAGYDVHWYQQLPGTAPKLLIAGNSNRPSGVPDRFSGSKSGTSASLAITGLQAEDEADYYCQSYDSSLSGPNWVFGGGTKLTVL |  |  |  |  |  |  | 0.0828 | 0.0975 | < 0.1
S2X259 variant antibody, VH SEQ ID NO 448 / VL SEQ ID NO 412 (antibody, V domains shown) VH: QVQLVQSGAEVKKPGSSVKVSCKASGGIFSTYTISWVRQAPGQGLEWMGRIILMSGMANYAQKIQGRVTITADKSTSTAYMELTSLRSDDTAVYYCARGFNGNYYGWGDDDAFDISGQGTLVTVYS VL: QTVLTQPPSVSGAPGQRVTISCTGSNSNIGAGYDVHWYQQLPGTAPKLLICGNSNRPSGVPDRFSGSKSGTSASLAITGLQAEDEADYYCQSYDSSLSGPNWVFGGGTKLTVL |  |  |  |  |  |  | 0.584 | 0.0134 | 
S2X259 variant antibody, VH SEQ ID NO 446 / VL SEQ ID NO 412 (antibody, V domains shown) VH: QVQLVQSGAEVKKPGSSVKVSCKASGGIFNTYTISWVRQAPGQGLEWMGRIILISGIANYAQKIQGRVTITADKSTSTAYMELTSLRSDDTAVYYCARGFNGNYYGWGDDDAFDISGQGTLVTVYS VL: QTVLTQPPSVSGAPGQRVTISCTGSNSNIGAGYDVHWYQQLPGTAPKLLICGNSNRPSGVPDRFSGSKSGTSASLAITGLQAEDEADYYCQSYDSSLSGPNWVFGGGTKLTVL |  |  |  |  |  |  | 0.572 | 0.321 | 
S2X259 variant antibody, VH SEQ ID NO 408 / VL SEQ ID NO 445 (antibody, V domains shown) VH: QVQLVQSGAEVKKPGSSVKVSCKASGGIFNTYTISWVRQAPGQGLEWMGRIILMSGMANYAQKIQGRVTITADKSTSTAYMELTSLRSDDTAVYYCARGFNGNYYGWGDDDAFDISGQGTLVTVYS VL: QTVLTQPPSVSGAPGQRVTISCTGSNSNIGAGYDVHWYQQLPGTAPKLLIVGNSNRPSGVPDRFSGSKSGTSASLAITGLQAEDEADYYCQSYDSSLSGPNWVFGGGTKLTVL |  | 0.0314 | 2.08e-05 | 661000 |  |  | 0.0764 | 0.19 | < 0.1
